Experiments:
[1] = target: ATM (biolayer interferometry) (UniProt Q13315); assay: BLI
[2] = target: ATM (biolayer interferometry) (UniProt Q13315); assay: BLI; in vitro; SPOP peptide bound to ATM, measured by diffracted light wavelength

Sequence of SPOP wild-type peptide (O43791 whole entry, looked up, tested part not stated): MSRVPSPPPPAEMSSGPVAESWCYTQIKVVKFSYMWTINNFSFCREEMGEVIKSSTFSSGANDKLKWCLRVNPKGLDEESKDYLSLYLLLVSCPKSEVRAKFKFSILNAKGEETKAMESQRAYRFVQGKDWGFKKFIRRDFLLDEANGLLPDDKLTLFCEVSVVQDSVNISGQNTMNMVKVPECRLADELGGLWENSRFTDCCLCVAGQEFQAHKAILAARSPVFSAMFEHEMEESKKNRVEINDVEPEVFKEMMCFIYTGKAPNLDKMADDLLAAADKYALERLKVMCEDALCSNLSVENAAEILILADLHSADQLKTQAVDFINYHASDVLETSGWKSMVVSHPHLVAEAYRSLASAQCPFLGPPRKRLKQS

Row | Substance | Kd [1] [µM] | amount bound relative to the mutant peptide [2] [fold]
1 | SPOP S119N mutant peptide (from UniProt O43791) | 45.5 | 
2 | SPOP wild-type peptide |  | 2
3 | SPOP wild-type peptide (from UniProt O43791) | 0.0698 | 
